Patent US20200399344A1 (SHATTUCK LABS, published 2020)
Values joined by “and” are separate entries in the source; they are usually repeats but may differ in a detail not shown here. Equal entries are not always repeated.

T1: recombinant human 2B4-Fc fusion protein (rh2B4-Fc) (human, UniProt Q9BZW8-2 22-221, limits assumed)
T1 construct: not shown: Fc
T1 sequence (looked up): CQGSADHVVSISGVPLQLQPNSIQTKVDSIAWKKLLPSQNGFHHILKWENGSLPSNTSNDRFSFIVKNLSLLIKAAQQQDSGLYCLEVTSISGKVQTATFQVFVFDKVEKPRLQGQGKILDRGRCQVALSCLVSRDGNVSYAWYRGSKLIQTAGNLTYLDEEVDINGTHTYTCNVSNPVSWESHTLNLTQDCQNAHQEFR

T2: recombinant human CD2-Fc fusion protein (rhCD2-Fc) (human, UniProt P06729 25-209)
T2 construct: not shown: Fc
T2 sequence (looked up): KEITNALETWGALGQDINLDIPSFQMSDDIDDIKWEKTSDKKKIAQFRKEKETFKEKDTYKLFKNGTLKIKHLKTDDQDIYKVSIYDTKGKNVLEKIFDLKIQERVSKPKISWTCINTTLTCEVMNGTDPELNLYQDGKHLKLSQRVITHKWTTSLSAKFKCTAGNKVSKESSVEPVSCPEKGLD

T3: recombinant mCD47 (mCD47-His) protein (mouse, UniProt Q61735 19-140, limits assumed)
T3 construct: not shown: His tag
T3 sequence (looked up): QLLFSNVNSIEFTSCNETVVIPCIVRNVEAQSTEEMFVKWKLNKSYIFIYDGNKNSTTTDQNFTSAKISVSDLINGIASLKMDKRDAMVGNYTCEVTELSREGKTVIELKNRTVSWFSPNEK


Tests used:
[1] = target: T4, recombinant human CD28-His (rhCD28-His) (human, UniProt P10747 19-152); assay: ELISA: coat rhCD28-His (Acro), detection Anti-hFc-HRP
T4 construct: also called Human CD28-His protein; recombinant CD28 protein; not shown: His tag
T4 sequence (P10747 19-152 limits assumed): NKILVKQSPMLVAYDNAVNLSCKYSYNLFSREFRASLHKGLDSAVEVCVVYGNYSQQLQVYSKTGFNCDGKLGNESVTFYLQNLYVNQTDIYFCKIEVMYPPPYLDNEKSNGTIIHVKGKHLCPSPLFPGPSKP
Method: To understand whether the CD80 and CD86 parts of the hCD80-Fc-NKG2A and hCD86-Fc-NKG2A chimeric protein can bind CD28, ELISA-based assays were performed. Briefly, recombinant CD28 protein was coated on plates and increasing amounts of the hCD80-Fc-NKG2A, hCD86-Fc-NKG2A, and mCD48-Fc-NKG2A chimeric proteins, and recombinant human CD86-Fc (rhCD86-Fc) protein was added to the plates for capture by the plate-bound recombinant CD28 protein. The mCD48-Fc-NKG2A chimeric protein, and recombinant human CDrhCD86-Fc protein was used as negative and positive controls, respectively. The chimeric proteins bound to the recombinant CD28 protein was detected using an anti-human Fc HRP.

[2] = target: T5, hCD28 expressed on CHO-K1/hCD28 cells (human, UniProt P10747 19-220); assay: flow cytometry on CHO-K1/hCD28 cells (hCD28-C1), APC-A, dose series (doses not given)
T5 construct: whole, on cells; also called CHO-K1/CD28
T5 sequence (P10747 19-220): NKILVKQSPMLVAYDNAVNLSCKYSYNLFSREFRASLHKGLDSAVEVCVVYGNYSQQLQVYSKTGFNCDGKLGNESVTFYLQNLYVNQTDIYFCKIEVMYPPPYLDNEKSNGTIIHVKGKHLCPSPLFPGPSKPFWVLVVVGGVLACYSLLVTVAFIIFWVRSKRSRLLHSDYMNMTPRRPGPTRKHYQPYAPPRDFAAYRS
Method: To determine whether the hCD86-Fc-NKG2A chimeric protein can specifically bind the CHO-K1/hCD28 cells, a flow-cytometry-based assay was carried out. […] The dose dependent shifts in the flow cytometry profiles illustrate a dose-dependent binding of the hCD86-Fc-NKG2A chimeric protein to hCD28 expressed by the CHO-K1/hCD28 cells. A quantitation of binding confirmed a dose-dependent binding (FIG. 65).

[3] = target: T1, recombinant human 2B4-Fc fusion protein …; assay: dual ELISA; coat rh2B4-Fc, hCD86-Fc-NKG2A titrated, detection HLA-E-His, Anti 6x-His-HRP
Method: (§1) (i) recombinant human 2B4-Fc fusion protein (rh2B4-Fc) was coated on plates. Increasing amounts of the hCD48-Fc-NKG2A or hCD86-Fc-NKG2A chimeric proteins were added and detected using HLA-E-His. The hCD86-Fc-NKG2A chimeric protein was used as a negative control (Negative control #1). […] (ii) recombinant human CD2-Fc fusion protein (rhCD2-Fc) was coated on plates. Increasing amounts of the hCD58-Fc-NKG2A or hCD86-Fc-NKG2A chimeric proteins were added and detected using HLA-E-His. The hCD86-Fc-NKG2A chimeric protein was used as a negative control (Negative control #2).
(§2) To understand whether the hCD48-Fc-NKG2A chimeric protein can bind simultaneously to both 2B4 and HLA-E, the following ELISA experiment was carried out. Briefly, and recombinant 2B4 (rh2B4-Fc) protein was coated on plates. Increasing amounts of the hCD48-Fc-NKG2A chimeric protein was added to the plates for capture by the recombinant human 2B4-Fc (rh2B4-Fc) protein. Further, recombinant HLA-E (HLA-E-His) protein was added to the plate for capture by hCD48-Fc-NKG2A chimeric proteins. The binding of the HLA-E-His protein was detected using an anti-His 6× HRP antibody.

[4] = target: T6, recombinant human CD28-Fc (rhCD28-Fc) protein (human, UniProt P10747 19-152); assay: dual ELISA; coat rhCD28-Fc, hCD86-Fc-NKG2a titrated, detection HLA-E-His, Anti-His-6x-HRP; the signal needs both bindings
T6 construct: not shown: Fc
T6 sequence (P10747 19-152 limits assumed): as the sequence (P10747 19-152 limits assumed) above
Method: To understand whether the hCD86-Fc-NKG2A chimeric protein can binds simultaneously to both hCD28 and HLA-E, the following ELISA experiment was carried out. Briefly, and recombinant hCD28 (rhCD28-Fc) protein was coated on plates. Increasing amounts of the hCD86-Fc-NKG2A chimeric protein was added to the plates for capture by the rhCD28-Fc protein. Further, recombinant HLA-E (HLA-E-His) protein was added to the plate for capture by hCD86-Fc-NKG2A chimeric protein. The binding of the HLA-E-His protein was detected using an anti-His 6× HRP antibody.

[5] = target: T7, anti-human IgG antibody (plate-bound); assay: ELISA (single sided Fc): coat Anti-Human IgG (H+L) Jax# 109-005-088, detection HRP Goat anti-human FCgamma
T7 construct: also called anti-human Fc antibody
Method: Anti-human IgG was coated on plates and increasing amounts of the indicated chimeric proteins were added to the plates. hIgG was used as a positive control, and mCD80-Fc-NKG2A was used as a negative control. The binding was detected using an anti-human Fcgamma HRP.
To understand whether the Fc linkers from the native chimeric proteins can be accessed by anti-human antibodies, ELISA-based assays were performed. For these assays, an anti-human IgG antibody was coated on plates and increasing amounts of the hCD86-Fc-NKG2A and hTGFBR2-Fc-NKG2A, mCD80-Fc-NKG2a chimeric proteins, and a human IgG antibody were added to the plates for capture by the plate-bound anti-human antibody. The human IgG antibody was used as a positive control and to generate a standard curve. The mCD80-Fc-NKG2a chimeric protein was included as a negative control as containing a non-human Fc domain. The protein bound to the anti-human IgG antibody was detected using an anti-human Fcgamma HRP.

[6] = target: T2, recombinant human CD2-Fc fusion protein …; assay: dual ELISA; coat rhCD2-Fc, hCD86-Fc-NKG2A titrated, detection HLA-E-His, Anti 6x-His-HRP
Method: as §1
as §2, with “hCD58-Fc-NKG2A” for “hCD48-Fc-NKG2A”, “CD2” for “2B4”, “CD2 (rhCD2-Fc)” for “2B4 (rh2B4-Fc)”, “CD2-Fc (rhCD2-Fc)” for “2B4-Fc (rh2B4-Fc)”

[7] = target: T8, PD-L1, plate-bound (Example 8) (Homo sapiens (Human), UniProt Q9NZQ7 19-238); assay: Dual ELISA (capturing with PDL1): coat hPDL1-Fc (R&D), detect hHLA-E (Novus), HRP Anti-6X His; curve low, about 0.45 at the highest concentration
T8 construct: not shown: The Fc carrier of the vendor's hPD-L1-Fc (R&D) and any linker
T8 sequence (Q9NZQ7 19-238 limits assumed): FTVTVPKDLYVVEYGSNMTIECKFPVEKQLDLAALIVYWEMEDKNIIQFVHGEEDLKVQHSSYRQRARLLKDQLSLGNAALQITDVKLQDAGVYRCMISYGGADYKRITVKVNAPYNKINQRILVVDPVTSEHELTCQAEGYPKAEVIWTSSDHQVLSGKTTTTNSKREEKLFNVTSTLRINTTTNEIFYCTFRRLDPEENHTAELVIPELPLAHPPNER

[8] = target: T9, mCTLA-4, plate-bound (mouse, UniProt P09793 36-162, limits assumed); assay: ELISA (single-sided): coat mCTLA-4 (R&D), detect Anti-mFc-HRP (Jax)
[9] = target: T9, mCTLA-4, plate-bound; assay: ELISA (single-sided): coat mCTLA-4 (R&D), detect Anti-mFc-HRP (Jax); curve near the baseline, about 0.25 only at the highest concentration
[10] = target: T10, goat anti-mCD48 antibody; assay: Dual binding ELISA: coat mHLA-E (Novus) as printed, detect Anti-mCD48 (R&D), HRP Anti-Goat HRP; flat curve
T10 construct: also called anti-CD48; Anti-CD48

[11] = target: T11, HLA class I histocompatibility antigen, alpha chain E (HLA-E), plate-bound recombinant protein (human, UniProt P13747 22-305, limits assumed); assay: ELISA (single-sided): coat hHLA-E (Novus), detect Anti-mFc-HRP (Jax)
T11 construct: no tag named there; also called recombinant HLA-E protein
T11 sequence (P13747 22-305 limits assumed): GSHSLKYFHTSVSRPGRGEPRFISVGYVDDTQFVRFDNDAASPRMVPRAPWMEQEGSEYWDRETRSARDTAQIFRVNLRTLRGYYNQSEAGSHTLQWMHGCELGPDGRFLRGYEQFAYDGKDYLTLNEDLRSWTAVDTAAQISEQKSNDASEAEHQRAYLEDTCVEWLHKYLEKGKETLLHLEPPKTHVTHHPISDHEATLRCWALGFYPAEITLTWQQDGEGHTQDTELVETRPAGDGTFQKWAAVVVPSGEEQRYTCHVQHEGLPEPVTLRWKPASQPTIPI

[12] = target: T3, recombinant mCD47 (mCD47-His) protein; assay: dual/PK ELISA; coat αNKG2a (1:10k), mCD86-fc-NKG2a titrated, detection mCD47-His (5ug/ml), His-HRP
Method: Increasing amounts of the mSIRPα-Fc-NKG2A chimeric protein was added and detected using mCD47-His. The CD86-Fc-NKG2A chimeric protein was used as a negative control.
To understand whether the mSIRPα-Fc-NKG2A chimeric protein can binds simultaneously to both anti-NKG2a and CD47, the following ELISA experiment was carried out. Briefly, and anti-NKG2a antibody was coated on plates. Increasing amounts of the mSIRPα-Fc-NKG2A and mCD48-Fc-NKG2A chimeric proteins were added to the plates for capture by the anti-NKG2a antibody. Further, recombinant mCD47 (mCD47-His) protein was added to the plate for capture by mSIRPα-Fc-NKG2A chimeric protein. The binding of the mCD47-His protein was detected using an anti-His HRP antibody.

binding result [1]	binding result [2]	binding result [4]	EC50 (read off the curve) [5] [µg/mL]	EC50 [7] [nM]	EC50 [8] [nM]	EC50 [9] [mM]	EC50 [10] [nM]	EC50 [11]	Binder	binding result [3]	binding result [6]	binding result [12]
binds	binds	binds	~1	–	–	–	–	–	human CD86-Fc-NKG2A chimeric protein (Fc fusion, also called hCD86-Fc-NKG2A) not shown	no binding (tested: about log 2.7 ug/ml (roughly 500 ug/ml))	no binding (tested: about log 2.7 ug/ml (roughly 500 ug/ml))	–
–	–	–	–	1650	0.658	~4.05	~5.55	66.1 nM and 83.2 nM	mouse CD86-Fc-NKG2A chimeric protein (Fc fusion, Batch 1 and Batch 2 were tested; also called mCD86-Fc-NKG2A) VSVETQAYFNGTAYLPCPFTKAQNISLSELVVFWQDQQKLVLYEHYLGTEKLDSVNAKYLGRTSFDRNNWTLRLHNVQIKDMGSYDCFIQKKPPTGSIILQQTLTELSVIANFSEPEIKLAQNVTGNSGINLTCTSKQGHPKPKKMYFLITNSTNEYGDNMQISQDNVTELFSISNSLSLSFPDGVWHMTVVCVLETESMKISSKPLNFTQEFPSPQTYWKVPRDCGCKPCICTVPEVSSVFIFPPKPKDVLTITLTPKVTCVVVDISKDDPEVQFSWFVDDVEVHTAQTQPREEQFNSTFRSVSELPIMHQDWLNGKEFKCRVNSAAFPAPIEKTISKTKGRPKAPQVYTIPPPKEQMAKDKVSLTCMITDFFPEDITVEWQWNGQPAENYKNTQPIMDTDGSYFVYSKLNVQKSNWEAGNTFTCSVLHEGLHNHHTEKSLSHSPGIIEGRMDTPYTEAKAQINSSMTRTHRDINYTLSSAQPCPHCPKEWISYSHNCYFIGMERKSWNDSLVSCISKNCSLLYIDSEEEQDFLQSLSLISWTGILRKGRGQPWVWKEDSIFKPKIAEILHDECNCAMMSASGLTADNCTTLHPYLCKCKFPI	–	–	no binding (tested: about log 1.8 ug/ml (roughly 60 ug/ml))
